# US7045537B1, “Protein structures and protein fibres” (The University of Sussex, priority 1999, dated 2006)
# Several values for one entry are separate records, joined by “and”; a condition that tells them apart may be missing. Equal values may be shown once.
# T1: SAF-p2B (CH3CO at the N terminus and NH2 at the C terminus)
# T1 peptide: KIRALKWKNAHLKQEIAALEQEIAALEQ
# T2: SAF-p2A
# T2 sequence (peptide): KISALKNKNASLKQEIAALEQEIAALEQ
# T3: SAF-p2C
# T3 construct: Designed peptide, uncapped ends
# T3 peptide: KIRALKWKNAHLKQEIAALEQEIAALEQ
# T4: SAF-p2D
# T4 construct: also called Self-Assembling Fibre peptide 2
# T4 peptide: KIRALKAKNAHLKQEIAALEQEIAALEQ
# Tests used:
# [1] = target: T1, SAF-p2B; assay: circular dichroism of the peptide mixture, 10 µM
# Procedure: (§1) Peptide samples were incubated at 5° C. in 10 mM MOPS (3-(N-Morpholino)propanesulfonic acid), pH 7. Sample concentrations were determined from their UV absorbance at 280 nm (SAF-p1) and 214 nm (SAF-p2). After baseline correction, ellipticities in mdeg were converted to molar ellipticities (deg cm^2 dmol-res^-1) by normalizing for the concentration of peptide bonds. Data were recorded in a cell of 1 mm path length by integrating the signal for 5s (and 1s for the fresh 100 µM peptide mixture) every nm in the range 205–260 nm. CD measurements were made using a JASCO J-715 spectropolarimeter fitted with a Peltier temperature controller.
# [2] = target: T1, SAF-p2B; assay: circular dichroism of the peptide mixture, 100 µM
# Procedure: as §1
# [3] = target: T1, SAF-p2B; assay: thermal melt by circular dichroism of the peptide mixture, 10 µM (expect 19° C. if no interaction)
# [4] = target: T1, SAF-p2B; assay: thermal melt by circular dichroism of the peptide mixture, 100 µM (expect 36° C. if no interaction)
# [5] = target: T2, SAF-p2A; assay: circular dichroism of the peptide mixture, 10 µM
# [6] = target: T2, SAF-p2A; assay: circular dichroism of the peptide mixture, 100 µM
# [7] = target: T3, SAF-p2C; assay: circular dichroism of the peptide mixture, 10 µM
# Procedure: as §1
# [8] = target: T3, SAF-p2C; assay: circular dichroism of the peptide mixture, 100 µM
# Procedure: as §1
# [9] = target: T2, SAF-p2A; assay: thermal melt by circular dichroism of the peptide mixture, 100 µM
# [10] = target: T1, SAF-p2B; assay: thermal melt by circular dichroism of the peptide mixture, 100 µM (expect 38° C. if no interaction)
# [11] = target: T4, SAF-p2D; assay: circular dichroism of the peptide mixture, 10 µM
# Procedure: as §1
# [12] = target: T4, SAF-p2D; assay: circular dichroism of the peptide mixture, 100 µM
# Procedure: as §1
% α-helix of the mixture (CD) [1] [%],% α-helix of the mixture (CD) [2] [%],% α-helix of the mixture (CD) [5] [%],% α-helix of the mixture (CD) [6] [%],% α-helix of the mixture (CD) [7] [%],% α-helix of the mixture (CD) [8] [%],Tm of the mixture (CD) [9] [° C.],% α-helix of the mixture (CD) [11] [%],% α-helix of the mixture (CD) [12] [%],Binder,Tm of the mixture (CD) [3] [° C.],Tm of the mixture (CD) [4] [° C.],Tm of the mixture (CD) [10]
~70,~80,–,–,–,–,–,–,–,Ac-KIAALKQKIAALKQEIDALEYENDALEQ-NH2 (Chemically capped form of SAF-p1A) [SAF-p1B],~25,~35,–
–,~65,20,40,~20,~80,30,–,–,"KIAALKQKIAALKQEIDALEYENDALEQ (Prototype designed peptide, uncapped ends) [SAF-p1A]",–,–,~36 ° C. and ~46 ° C.
–,–,–,–,~25,~65,–,~25,~85,KIAALKQKIASLKQEIDALEYENDALEQ (also called Self-Assembling Fibre peptide 1) [SAF-p1C],–,–,–
